Data on 2 molecules can be found in patent publication US20240425546A1 (NANTONG YICHEN BIOPHARMA, published 2024).

The target of experiment [1] is T1, WT hIL-1β (human, UniProt P01584 117-269). As to the kind of experiment: cell-based or functional assay.
In experiment [2] the target is T1, WT hIL-1β. Put plainly: competitive ELISA on coated WT hIL-1β; canakinumab diluted in series, competitor E64AK-F4-mFc (100 nM).
In another experiment the target is T2, E64AK-F4-mFc (mouse, UniProt P01863 123-330 = IgG part).
T2 construct: scFv fused to the Fc of mouse IgG2a by a linker; also called E64AK-F4-mFc fusion antibody
T2 sequence (VL, as listed by the source limits assumed, chain 1 of 3): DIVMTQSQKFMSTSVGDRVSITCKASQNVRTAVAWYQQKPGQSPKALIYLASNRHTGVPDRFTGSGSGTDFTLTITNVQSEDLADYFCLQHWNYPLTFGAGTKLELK
T2 sequence (VH, as listed by the source limits assumed, chain 2 of 3): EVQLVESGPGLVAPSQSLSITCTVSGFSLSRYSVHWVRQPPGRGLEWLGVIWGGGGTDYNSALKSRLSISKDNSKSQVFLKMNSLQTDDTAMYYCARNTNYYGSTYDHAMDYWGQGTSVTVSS
T2 sequence (P01863 other isoform, or with tags, fused parts or gaps limits assumed, chain 3 of 3): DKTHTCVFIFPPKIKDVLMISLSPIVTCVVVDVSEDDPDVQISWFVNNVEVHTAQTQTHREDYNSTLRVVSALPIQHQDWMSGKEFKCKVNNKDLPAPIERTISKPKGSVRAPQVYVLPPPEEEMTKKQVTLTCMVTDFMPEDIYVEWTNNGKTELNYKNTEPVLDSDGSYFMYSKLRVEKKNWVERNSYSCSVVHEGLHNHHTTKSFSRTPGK
As to the kind of experiment: ELISA, antigen coated.

B1: Canakinumab (antibody, V domains shown)
VH: QVQLVESGGGVVQPGRSLRLSCAASGFTFSVYGMNWVRQAPGKGLEWVAIIWYDGDNQYYADSVKGRFTISRDNSKNTLYLQMNGLRAEDTAVYYCARDLRTGPFDYWGQGTLVTVSS
VL: EIVLTQSPDFQSVTPKEKVTITCRASQSIGSSLHWYQQKPDQSPKLLIKYASQSFSGVPSRFSGSGSGTDFTLTINSLEAEDAAAYYCHQSSSLPFTFGPGTKVDIKR
B1: in the experiment with WT hIL-1β [1], the “inhibition of IL-1β-induced activation of HEK-Blue IL-1R cells (SEAP), IC50” value worked out at 4.7 nM. Further, the 50% inhibitory concentration (IC50) with WT hIL-1β [2] was 2.1 nM.

B2: hIL-1β63-66A (ligand)
chain: APVRSLNCTLRDSQQKSLVMSGPYELKALHLQGQDMEQQVVFSMSFVQGEESNDKIPVALGLAAAALYLSCVLKDDKPTLQLESVDPKNYPKKKMEKRFVFNKIEINNKLEFESAQFPNWYISTSQAENMPVFLGGTKGGQDITDFTMQFVSS
notes: also called IL-1β mutant containing four alanine mutations; hIL-1βE63-66A
For B2, the binding result with E64AK-F4-mFc is “no binding”.
